# According to patent EP4261227A1:
# B1: anti-OXA-48-like carbapenemase mouse mAb IB5 (antibody, V domains shown)
# VH: EVMLVESGGGLVKPGGSLKLSCAASGFTFSTYAMSWVRLTPEKRLEWVATISSGGSYTSYPDSVKGRFTISRDNAKNTLYLQMSSLRSEDTAMYYCARRPEYAMDYWGQGTSVTVSS
# VL: LVQHQPVSSYLAASPGETVTINCRASKSISKYLAWYQEKPGKTNKLLIYSGSTFQSGFPSGFSGSGSGTDFTLTVSSLEPEDFAIYYCQQHNEYPYVTFGGGTKLEIKR
# Target: OXA-48-like carbapenemase (Klebsiella pneumoniae) (UniProt Q6XEC0)
# Experiment: indirect ELISA, plate coated with 0.2 ug/mL OXA-48-like carbapenemase, purified antibody in doubling dilutions from 1:1000
# Chain of UniProt Q6XEC0 (Q6XEC0 23-265 limits assumed): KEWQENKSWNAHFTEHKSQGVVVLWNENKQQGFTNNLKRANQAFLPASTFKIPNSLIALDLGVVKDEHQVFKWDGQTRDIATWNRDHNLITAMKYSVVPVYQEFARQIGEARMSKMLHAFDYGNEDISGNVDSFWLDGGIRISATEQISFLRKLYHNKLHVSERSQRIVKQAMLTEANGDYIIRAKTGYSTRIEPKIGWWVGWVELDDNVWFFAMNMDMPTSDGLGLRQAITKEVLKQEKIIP
binder,measurement,value
B1,titer (dilution factor (1:x) from 1 mg/mL),1.28e+06
